The source of these data is publication PMC8556256.

The test concerns the target Flag-tagged PITX2 R115L (mouse). In words: co-IP; 293T cells co-transfected with PITX2-Flag (WT or R115L) and NRF2-HA or YAP1-HA; lysis in 50 mM Tris-HCl pH 7.5, 150 mM NaCl, 1% Nonidet P-40, 0.5% sodium deoxycholate; Flag immunoprecipitation at 4 °C overnight, six washes, blot with anti-HA; relative binding capacity = normalized IP-HA intensity / normalized IP-Flag intensity (ImageJ).

As for “HA-tagged YAP1 (from UniProt P46938 1-488) (natural protein)”, the reduction of relative binding capacity against WT PITX2 was determined as 89.1%.

B1: HA-tagged NRF2 (natural protein)
chain: MMDLELPPPGLQSQQDMDLIDILWRQDIDLGVSREVFDFSQRQKDYELEKQKKLEKERQEQLQKEQEKAFFAQFQLDEETGEFLPIQPAQHIQTDTSGSASYSQVAHIPKQDALYFEDCMQLLAETFPFVDDHESLALDIPSHAESSVFTAPHQAQSLNSSLEAAMTDLSSIEQDMEQVWQELFSIPELQCLNTENKQLADTTAVPSPEATLTEMDSNYHFYSSISSLEKEVGNCGPHFLHGFEDSFSSILSTDDASQLTSLDSNPTLNTDFGDEFYSAFIAEPSDGGSMPSSAAISQSLSELLDGTIEGCDLSLCKAFNPKHAEGTMEFNDSDSGISLNTSPSRASPEHSVESSIYGDPPPGFSDSEMEELDSAPGSVKQNGPKAQPAHSPGDTVQPLSPAQGHSAPMRESQCENTTKKEVPVSPGHQKAPFTKDKHSSRLEAHLTRDELRAKALHIPFPVEKIINLPVDDFNEMMSKEQFNEAQLALIRDIRRRGKNKVAAQNCRKRKLENIVELEQDLGHLKDEREKLLREKGENDRNLHLLKRRLSTLYLEVFSMLRDEDGKPYSPSEYSLQQTRDGNVFLVPKSKKPDTKKN
For B1, the reduction of relative binding capacity against WT PITX2 turned out to be 53.8%.
